Key:
VHH14-Fc (huarizo) [1] = assay: BLI; Octet RED384, 25 °C, 1× Kinetics buffer; purified VHH-Fc captured on Protein G biosensors, mouse Plexin-B1 in solution (VHH14-Fc: 10-3.75 nM, 1800 s association, 7200 s dissociation; VHH15-Fc: 160-10 nM, 600 s, 510 s); global 1:1 fit
VHH14-Fc (huarizo) [2] = assay: BLI; Octet RED384, 25 °C, 1× Kinetics buffer; VHH-Fc-loaded biosensors, mPlexin-B1 wildtype or H34Y P240Q at 400-6.25 nM, 300 s association, 600 s dissociation

Sequence of VHH14-Fc (huarizo) (heavy, as listed by the source): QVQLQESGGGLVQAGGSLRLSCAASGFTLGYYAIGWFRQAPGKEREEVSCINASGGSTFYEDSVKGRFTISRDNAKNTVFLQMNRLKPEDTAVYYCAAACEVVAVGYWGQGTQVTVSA

B1: mouse Plexin-B1 (20–535)-6xHis (domain or fragment)
chain: LRSPLPAAFTANGTHLQHLARDPTTGTLYVGATNFLFQLSPGLQLEAVVSTGPVNDSRDCLPPVIPDECPQAQPTNNPNQLLLVSPEALVVCGSVHQGICELRSLGQIRQLLLRPERPGDTQYVAANDPAVSTVGLVAQGLVGEPLLFVGRGYTSRGVGGGIPPITTRALRPPDPQAAFSYEETAKLAVGRLSEYSHHFVSAFVRGASAYFLFLRRDLKAPSRAFRAYVSRVCLQDQHYYSYVELPLACQGGRYGLIQAAAVATSKEVARGDVLFAAFSSVAPPTVDWPLSASTGASGTSVLCAFPLDEVDQLANYTRDACYTREGRAENGTKVADIAYDVLSDCAQLPVDTPDAFPCGSDHTPSPMVSCVPLEATPILELPGVQLTAVAVTMEDGHTIAFLGDSQGQLHRVYLGPGRSAAPYSKQSIQPGSPVNRDLTFDGTFEHLYVATQTTLVKVPVAPCAQHLDCDSCLAHRDPYCGWCVLLGRCSRRSECSRDQGPEQWLWSFQPELGCLR
A Kd (VHH14-Fc (huarizo) [1]) of 0.237 nM and a Kd (VHH14-Fc (huarizo) [2]) of 3.13 nM were found for B1 in this work.

B2: mPlexin-B1 (20–535) H34Y P240Q (domain or fragment)
chain: LRSPLPAAFTANGTYLQHLARDPTTGTLYVGATNFLFQLSPGLQLEAVVSTGPVNDSRDCLPPVIPDECPQAQPTNNPNQLLLVSPEALVVCGSVHQGICELRSLGQIRQLLLRPERPGDTQYVAANDPAVSTVGLVAQGLVGEPLLFVGRGYTSRGVGGGIPPITTRALRPPDPQAAFSYEETAKLAVGRLSEYSHHFVSAFVRGASAYFLFLRRDLKAQSRAFRAYVSRVCLQDQHYYSYVELPLACQGGRYGLIQAAAVATSKEVARGDVLFAAFSSVAPPTVDWPLSASTGASGTSVLCAFPLDEVDQLANYTRDACYTREGRAENGTKVADIAYDVLSDCAQLPVDTPDAFPCGSDHTPSPMVSCVPLEATPILELPGVQLTAVAVTMEDGHTIAFLGDSQGQLHRVYLGPGRSAAPYSKQSIQPGSPVNRDLTFDGTFEHLYVATQTTLVKVPVAPCAQHLDCDSCLAHRDPYCGWCVLLGRCSRRSECSRDQGPEQWLWSFQPELGCLR
A Kd (VHH14-Fc (huarizo) [2]) of 255 nM was found for B2 in this work.

— article PMC10206189
